From patent publication US20240277868

Test system: synthetic TNF-derived myristoylated peptide

Substance “purified recombinant His-tagged wild type SIRT6” has a KmPEP of 61.1 µM.
